Source: patent US20240239872A1 (SHANDONG AGRICULTURAL UNIVERSITY, published 2024)

Molecular target: T1, CP of tomato brown rugose fruit virus (genus Tobamovirus) (Tomato brown rugose fruit virus, UniProt A0A0S2SZX3 2-159)
T1 construct: also called ToMMV (as printed for this virus)
T1 sequence: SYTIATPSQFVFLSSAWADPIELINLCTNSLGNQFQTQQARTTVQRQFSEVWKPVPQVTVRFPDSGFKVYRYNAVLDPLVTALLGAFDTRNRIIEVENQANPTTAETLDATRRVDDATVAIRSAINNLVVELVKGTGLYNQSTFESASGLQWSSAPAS
Assay: dot blot; also Western blot and ELISA

Binder | binding result
monoclonal antibody C1 (antibody, V domains shown, also called MAb C1) VH: EVQLQQSGAELVRPGALVKLSCKASGFNIKDYYMHWVKQRPEEGLEWIGWIDPENGNTIYDPKFQGKASITADTSSNTVRLQLSSLTSEDTAVYYCARERGAYWGQGTLVTVSA VL: QIVLTQSPAIMSASPGEKVTMTCSASSSVSYMYWFQQKPGSSPRLLIYDTSNLASGVPVRFSGSGSGTSYSLTISRMEAEDAATFYCQQWSSYPLTFGAGTKLELK | no binding
monoclonal antibody N1 (antibody, V domains shown, also called MAb N1) VH: EVQLVESGGGLVQPGGSLKLSCAASGFTFSSYGMSWVRQSPDKRLEWVATINNNGGSTYYPDSVKGRFTISRDNAKNTLYLQMSSLKSEDTAVYYCARDAAFDCWGQGTTLTVSS VL: DIVMSQSPSSLAVSAGEKVTMSCKSSQSLLNSRTRKNYLAWYQQKPGQSPKLLIYWASTRESGVPDRFTGSGSGTDFTLTISSVQAEDLAVYYCKQSYNLFTFGSGTKLEIK | no binding
monoclonal antibody M1 (antibody, V domains shown, also called MAb M1) VH: QVQLQQSGPELVRPGASVKMSCKTSGYPFSTYWMHWVKQRPGQGLEWIGMIKPSNSETSLNQKFKDKATLNVDKSSNTAYMQLNSLTSEDSGVYYCARAGDSWGQGTTLTVSS VL: not shown | no binding
monoclonal antibody M2 (antibody, V domains shown, also called MAb M2) VH: EVQLVESGGGLVQPKGSLKLSCAASDFTFNTHSMNWVRQAPGKVLEWIARIRSQSNNYATYYADSVKDRFTISRDDSQNMFYLQMNNLKTEDTAMYYCAGDYYGPFAYWGQGTLVAVSA VL: DVLMTQTPLSLPVSLGDQASISCRSGQSLVHSNGNTYLHWYLQKPGQSPKLLIYKVSNRFSGVPDRFSGSGSGTDFTLKISRVEAEDLGVYFCSQSTHVPWTFGGGTKLEIK | no binding
monoclonal antibody M3 (antibody, V domains shown, also called MAb M3) VH: EVILVESGGGLVKPGGSLRLSCAASGFTFSSHPLSWVRQSPDKRLEWVASISSGGRYTYYPDSVKGRLTISRDNAKNILYLHMNSLRSEDTAMYYCARRGSTATAWFAYWGQGTLVTVSA VL: DIALTQSPASLAVSLGQRATISCKASQSVDYDGDSYMSWYQQKPGQPPKLLIYGASNLESGIPARFSGSGSGTDFTLNIHPVEEEDAATYYCQQSNEDLPTFGGGTKLEIK | no binding
